Assay results taken from patent publication US8290713 (LONZA BIOLOGICS, dated 2012).
Non-standard residues stand in square brackets, D forms with d.

B1: ZP-0228 (peptide)
peptide: H-[dP][dY][dS][dV][dL][dI]-NH2
SMILES: CC[C@@H](C)[C@@H](NC(=O)[C@@H](CC(C)C)NC(=O)[C@H](NC(=O)[C@@H](CO)NC(=O)[C@@H](Cc1ccc(O)cc1)NC(=O)[C@H]1CCCN1)C(C)C)C(N)=O
B2: ZP-0229 (peptide)
peptide: H-[dQ][dY][dS][dV][dL][dV]-NH2
SMILES: CC(C)C[C@@H](NC(=O)[C@H](NC(=O)[C@@H](CO)NC(=O)[C@@H](Cc1ccc(O)cc1)NC(=O)[C@H](N)CCC(N)=O)C(C)C)C(=O)N[C@@H](C(N)=O)C(C)C

Biological target: α-synuclein (UniProt P37840 1-140)
Assay: cell-based or functional assay
Note: test concentration or dose not given here.

Row | Binder | % decrease in ThT fluorescence [%] | % decrease in rate of aggregation [%] | % increase in Lag phase [%]
1 | B1 | 40.8 | 46.2 | 38.2
2 | B2 | 17.8 | 24.3 | 33.5
